Results from the DeepSol protein solubility set.

Assay: soluble on expression in E. coli; label from the status in PepcDB or PDB records

Sequence | soluble on expression in E. coli
MGSDKIHHHHHHMPASSHQPLDLAKFTLSSPTEIAQHLSNIAKHGHMVTVFANKGKNFILTRLLEVDYQAGVFTFDWGAEEETNTQVLNSERNVFVCSPEGVKTQFVAGQISQVMVDDRPAFQCRLPEQVIKLQRREFFRIQTPLGSPVFCRIGDFNQRSIDLALFDISLGGMSLWLPGIDTPGFDIGQQYLQCSIDLKPFGTLALGIEVRHRLTARMRNGNEAMRIGCSYLNLSAPMETIIQRYVGFLERERRAMVG | not soluble
MGSDKIHHHHHHMTRLCRTFQTAPAAIPNDNSAKFLVSGLTSKGFQAPDWLVPDIEDGTAPSMKDEAVDNIIEHIPDHADDFAGDILPRVEWAYDDANARERGIEQVTRLAEAVGEELDGFVFPKVGRLDDVRDAAGVIADAERDAGLPEGTLEMAIILETAPGRSDLREICQYATDSRLSGLVFGPVDYTAELGGRTLDGERPRWDGLLEALSNETSAADIVAIGGPFDQLFHERAGVTYYNAEGYADQVAYEATIGIDGSWSLHPKQTEQANRIHMPTVEEMERDLHKIESFNEAKREGTGAVVVDGQMVDEATYKNFANTVKTVRAIDETHPAQTEAYYDDDLLARARDVELIFG | not soluble
MAHHHHHHMGTLEAQTQGPGSMKGEPKVIERLNEALFLELGAVNQYWLHYRLLNDWGYTRLAKKEREESIEEMHHADKLIDRIIFLEGFPNLQTVSPLRIGQNVKEVLEADLKGEYDARASYKESREICDKLGDYVSKQLFDELLADEEGHIDFLETQLDLLAKIGGERYGQLNAAPADEAE | soluble
MGSDKIHHHHHHMTIARRKSREVTIGNVRIGGDNPVVVQSMTNTDTRDVEQTVEQINSLAEAGCEIVRVAVLNDDAAWAIRPIKDQVTVPLVADIHFDHRLAVSALEAGVDALRINPGNIGGQKNVDKVVDAAKAHGSVIRVGVNGGSLERDLVEKYCGPTPEAMVESALRHVRMLEDRNFDNIKISLKSSSVTDTVTAYRLLGQQCEYPLHIGVTEAGTMLRGSVKSSVGIGILLWQGIGDTLRVSLTEDPVAEMAVAWEILRSLGLRFRGPEIISCPTCGRTEIDLISLAGEIERRLQNETQSFKVAVMGCVVNGPGEAREADIGIAGGRDKGIIFRHGEVIRTVKGGSNLLAAFNEELDKFLAERQGR | not soluble
MRTIDDRIVHSLNTTVPTASFSGKVDATQTCKELYESLMEAHLSRDKAIKSCIKETSAVVSQLREERAKDSDNLSVIKQLRKEQTKLKLMQSELNVEEVVNDRSLKVFNERCRIHYTPPKIK | soluble
MAEVKEKRHEELGLSDEQVLEMFRTMLLARKIDERMWLLNRAGKIPFVISCQGQEAAQVGAAFALDREKDYALPYYRDMGVVLAFGMTAKELMLSGFAKAGDPNSGGRQMPGHFGQKKNRIVTGSSPVTTQVPHAVGIALAGKMEKKDLVTFVTFGEGSSNQGDFHEGANFAGVHKLPVIFMCENNKYAISIPVEKQLACKNVSDRAIGYGMPGYTVDGNDPLAVYKAVKEAADRGRRGEGPTLIETVSYRLTAHSSDDDDRVYRDKEEVEEAKKNDSIVTFAAYLKEVGVLTEESEKQMLDEIMHIVNEATEYAENAPYAAPEDALKHVYAE | not soluble
MGSDKIHHHHHHMSENEQLSATYELLHADAASPVMISLPHSGTWIPADMRKHLLPTAVLANTDWFLPALYDFLPQTGFTTLINRVNRYVADPNRAVTLDLDHDYRSATIYQRNTFNHPLYARPLPPETLQSRLRTYYWPYRHALTMILKQKQAKFGHAYLIDLHSFAQYPHYPGIKPKTIVLGNDHDRTTSKIFRQTLSAAFVAHDFTVENNFPFRGGDITRYYGHQPNITAIQIELRYDQYIDQRSFREEVLTRHQTDLFCKAQDRLRFLRDFLKQLR | not soluble
MIISDKFSLEAMCATTITDVKAGDEIILYGQKLTDENSCVTIKTDRVDIISSGNFIKYPNSTDIYDFDNKIDEWSFIIVEGVVNGNTIELNDKSTF | not soluble
GSHMPLSSENKQKLQKQVEFYFSDVNVQRDIFLKGKMAENAEGFVSLETLLTFKRVNSVTTDVKEVVEAIRPSEKLVLSEDGLMVRRRDPLP | soluble
GEFAQECQNLEVERQRRLERIKQKQSQLQELILQQIAFKNLVQRNRHAEQQASRPPPPNSVIHLPFIIVNTSKKTVIDCSISNDKFEYLFNFDNTFEIHDDIEVLKRMGMACGLESGSCSAEDLKMARSLVPKALEPYVTEMAQGTVGGVFITTA | soluble
MVSQRLHHRCDLVFFVVDSKHDQLNLDRFEFWQLTSQLLVLDVCLFDAFALEHHHHHH | not soluble
MGHHHHHHHHHHSSGHIEGRHIGSGVEAPEQLEEHGISVYATIPMSEWLDKRTRLRKKNLFSNQQRHRTKNIPFLAVDNPADSAVEAVRALRTSLHFAMMETENNILMITGATPDSGKTFVSSTLAAVIAQSDQKVLFIDADLRRGYSHNLFTVSNEHGLSEYLAGKDELNKVIQHFGKGGFDVITRGQVPPNPSELLMRDRMRQLLEWANDHYDLVIVDTPPMLAVSDAAVVGRSVGTSLLVARFGLNTAKEVSLSMQRLEQAGVNIKGAILNGVIKRASTAYSYGYNYYGYSYSEKE | soluble
MIRVIFLDLDKTLLPEYDPEPAIPIVEELKKKGFEIVFNSSKTRAEQEYYREKLNVKGPFIVENGSAIYIPSNYFPFEVPGVKRGEYMVLELGVKVEEIRKALKELEAEYGLKYYGNSTDEEIEKFTKLPKHLIPLAKDREYSETIFLWKREGWEKDLIRKGFKVTMGSRFYAVHGNSDKGKAAKLLLDLYKRVDEVESYAVGDGENDFPMFDVVDFAFLIGDLRHENAENVTSIKDVLKKIAAALEHHHHHH | soluble
MAHHHHHHMYNPALPNHYRGVVFAAYVRRRQREEAAAAQQQRQPNALASALSASSLAAPSMASVTAPLLGLSAEELHQHRIKESAALGIQRAVMMEKEALEVEHKKRKLEGSDARSRISSRLDKLKALAAKSKAVTGVSASLDAGDAILQAGGPSSPTSSQRTSSSSFDAEAAPSAPLVFQRSSLAAGGYVMAAADPSLPGMLLRTKTRSAVQGKPSSTLLLRFLHDSPVLGWKEAAIAEASTLSSAESSLCAPVLSQVQQLCRRFGFVRSMAAHVYAEDVVTAALARARSQTSAETQVPSAEAVRREQLRVWVRFDSVTEAFKAAESLAKEVSPATPAGRPVFAVAFYPTGLYDSGALELREEDLLSPSA | not soluble
SLSPPVVMSRMFGAQLFNGTSADSGATVGFNPDYILNPGDSIQVRLWGAFTFDGALQVDPKGNIFLPNVGPVKVAGVSNSQLNALVTSKVKEVYQSNVNVYASLLQAQPVKVYVTGFVRNPGLYGGVTSDSLLNYLIKAGGVDPERGSYVDIVVKRGNRVRSNVNLYDFLLNGKLGLSQFADGDTIIVGPRQHTFSVQGDVFNSYDFEFRESSIPVTEALSWARPKPGATHITIMRKQGLQKRSEYYPISSAPGRMLQNGDTLIVSTDRYAGTIQVRVEGAHSGEHAMVLPYGSTMRAVLEKVRPNSMSQMNAVQLYRPSVAQRQKEMLNLSLQKLEEASLSAQSSTKEEASLRMQEAQLISRFVAKARTVVPKGEVILNESNIDSVLLEDGDVINIPEKTSLVMVHGEVLFPNAVSWQKGMTTEDYIEKCGGLTQKSGNARIIVIRQNGAAVNAEDVDSLKPGDEIMVLPKYESKNIEVTRGISTILYQLAVGAKVILSL | soluble
MCINIRLEKTRDIQSIHAITIAAFLDAPHTDHTEQFIVDALRDSGALSVSLIAEDSSKIIGHVALSPVTISDGSKDWYGLGPISVVPTDQNKGIGSKLMHAALRELNNLNANGCVLLGDPNYYRRFGFEPIGGLVLPDVPPEYFQATLLKGSYPTGVVTYHESFSAQS | not soluble
MMAVENAVDYPISVRLPSYVVEKIDELVKKRKFRSRSDFIKFAVTFALGQIMMEEARERAKNEPEELEKERKEAWMRLRAGDFSKEDEETLELLKKVDARYKRLGGRS | soluble
GPGSMPATEMQSMEMDTVQSMYDSYELISVDPPTYSVLLTATADDPPELRVTIVYDSEGYPETAAPTVRLEHIAKHRRMQTAALAKEIEDLCAEQIGMHSVISVLQKAQEYLTDYAAMEEKAELQRRGDALTKAAASVSTAAPDPTVRIGTAVTRELFAEWSEKHIAEKLQKRVLSEKKSTKLTGRQLWDGTLKNADWDLFEALEDEQDVDLYTLANGEGEEADEVEYDLDDPAEEG | soluble
MGSDKIHHHHHHQVSGDTVKIGFITDLSGLYADIDGQGGVEAIKMAIEDAGGKVLGKPIELVTADHQNKADIAASKAREWMDQQGLDVLIGGTNSGTALAMNKVAAEKKRVYINNGAGTARLTNEECSPYTVHYAYDTVALAKGTGSAVVKQGGKSWFFLTADYAFGHSLESDTAAVVKANGGTVLGSVRHPLSASDFSSFLLQAQASKAQILGLANAGGDTINSIKAAKEFGITKTMKIAGLLMFINDIHSLGLKNTEGLLMTDSWYWDMNDDTRKFANRYFSKMKKMPSSLQAADYSAVSTYLKAVAAAKTDDPDKVMAELKKTKINDFYTKGYIRQDGRGIHDMYLMQVKSPAESKKPWDYLKIVATIPGDQAFTTVAESKCSMMKK | not soluble
MLVLRLFNTQKARLSQLPKASNEIVKDFISKLANAAGSRDKLSDCFTHDFQFFGCGYTVNKAPFVEKHLATPNPEPLIPKCSSFNGNDSKISFTASHQDGPRENIVDLVISREEKDSPWRLQSGKITNCP | not soluble
MSLKARKSWISDKGPLSVSTQCELAGVTRSGYYGQSKSLMPNTEDLELMKLIDEEYTRHPFYGSRRMKRVLLAQGRKVNRKRVQRLMRNLGLAGIAPGPNTSKPHPQHKIYPYLLRGLVITRPNHVWSTDVTYCRLPGGFMYLTAVIDWYSRKVLAWRLSNSLDSSFCVDCLEEAIRKYGMPEIFNTDQGTQYTSEAFTGVLKSHDIRISMDGRGRALDNIFVERLWRNVKQEDLYLKGYETAVEMMRGLTEYFRFYNIERPHQSLGYKTPDEVYESATGGGARIVDKFFQKSVSEGSSEATGPQQEAAEGHHHHHH | soluble
SNAMILSQQKYNYLAKVSDSNGVISALAFDQRGALKCLMAQYQMKEPTVAQMEELKVLVSEELTPYASSILLDPEYGLPAAQARDREAGLLLAYEKTGYDANTTSRLPDCLVDWSIKRLKEAGADAVKFLLYYDVDGDPQVNVQKQAYIERIGSECQAEDIPFFLEILTYDETISNNSSVEFAKVKVHKVNDAMKVFSAERFGIDVLKVEVPVNMVYVEGFAEGEVVYSKEEAAQAFREQEASTDLPYIYLSAGVSAELFQETLVFAHKAGAKFNGVLCGRATWAGSVQVYMEEGKEAARQWLRTSGLQNINELNKVLKTTASPWTEKVSVG | soluble
GRMRIQEQSGARDKMVIGAGGLEDYIDKAMDDVAPNLKALVGAKLGARLISLAGGLKELAMLPSSTIQVLGAEKALFRHLRTGAKPPKHGVIYQYPAINRSPWWQRGKIARALAGKLAIAARVDYFSGEYIAEELKKELEARIKEIKEKYPRPPKRRKEERKGRKPWKE | soluble
